Consider 22 molecules from paper PMC12416549 (2024).

Changes are numbered by the printed parent chain. Names may count otherwise.

To fix the notation:
T1: TNFR1 (Homo sapiens, UniProt P19438)
T1 chain: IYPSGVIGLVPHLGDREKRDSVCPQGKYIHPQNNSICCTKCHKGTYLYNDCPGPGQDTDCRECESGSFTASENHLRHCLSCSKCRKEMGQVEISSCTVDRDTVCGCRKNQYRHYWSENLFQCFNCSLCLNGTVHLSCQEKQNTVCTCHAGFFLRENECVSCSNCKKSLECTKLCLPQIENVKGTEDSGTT

B1: V100G (designed binder)
chain: MTLQELLREEALRRAEAEAFRYALELLAEKFPEQKEYLLDLAEEIESQIRSLSGVDVEDVRKFLDKEWAWVKELLAEHPAELAEVEAARAARLAELRAEGEAKVAA
B2: F20A (designed binder)
chain: B1 chain with F20A, G100V
B3: A42G (designed binder)
chain: B1 chain with A42G, G100V
B4: A106D (designed binder)
chain: B1 chain with G100V, A106D
B5: V104S (designed binder)
chain: B1 chain with G100V, V104S
B6: E9T (designed binder)
chain: B1 chain with E9T, G100V
B7: D59N (designed binder)
chain: B1 chain with D59N, G100V
B8: A98M (designed binder)
chain: B1 chain with A98M, G100V
B9: A11E (designed binder)
chain: B1 chain with A11E, G100V
B10: E33I (designed binder)
chain: B1 chain with E33I, G100V
B11: A106G (designed binder)
chain: B1 chain with G100V, A106G
B12: E81G (designed binder)
chain: B1 chain with E81G, G100V
B13: L82V (designed binder)
chain: B1 chain with L82V, G100V
B14: L27V (designed binder)
chain: B1 chain with L27V, G100V
B15: I45V (designed binder)
chain: B1 chain with I45V, G100V
B16: Y37V (designed binder)
chain: B1 chain with Y37V, G100V
B17: E84K (designed binder)
chain: B1 chain with E84K, G100V
B18: V104Y (designed binder)
chain: B1 chain with G100V, V104Y
B19: P32D (designed binder)
chain: B1 chain with P32D, G100V
B20: S53W (designed binder)
chain: B1 chain with S53W, G100V
B21: A28T (designed binder)
chain: B1 chain with A28T, G100V
B22: E5L (designed binder)
chain: B1 chain with E5L, G100V

In the experiment the target is T1, TNFR1. Description: yeast display SC50.
On to B1, for which the “apparent Kd (screen)” value is 0.718 nM. As for B2, the “apparent Kd (screen)” value amounted to 2.05 nM.

On to B3, for which the “apparent Kd (screen)” value is 0.49 nM. For B4, the “apparent Kd (screen)” value stood at 1.05 nM. With B5, the “apparent Kd (screen)” value turned out to be 0.869 nM. Under B6 stands 0.956 nM; under B7, 0.653 nM; under B8, 0.653 nM.

For B9, the “apparent Kd (screen)” value came out at 0.446 nM. For B10, the “apparent Kd (screen)” value came out at 0.718 nM.

In the case of B11, the “apparent Kd (screen)” value is 0.956 nM. For B12, the “apparent Kd (screen)” value worked out at 0.539 nM. B13: the “apparent Kd (screen)” value is 0.49 nM.

Turning to B14, the “apparent Kd (screen)” value is 1.54 nM. The same measure for B15: 0.593 nM; for B16: 24.4 nM. B17: the “apparent Kd (screen)” value is 0.869 nM. The same measure for B18: 0.593 nM; for B19: 0.869 nM. B20: the “apparent Kd (screen)” value came out at 13.8 nM. With B21, the “apparent Kd (screen)” value was 1.27 nM. B22: the “apparent Kd (screen)” value is 0.718 nM.
